Reference: article PMC7065271 (Chemico-biological interactions, 2020)

Target: the molecule itself
Test: SEC

B1: Torpedo californica acetylcholinesterase tetramer (enzyme, UniProt P04058-2 22-596, looked up)
chain: DDHSELLVNTKSGKVMGTRVPVLSSHISAFLGIPFAEPPVGNMRFRRPEPKKPWSGVWNASTYPNNCQQYVDEQFPGFSGSEMWNPNREMSEDCLYLNIWVPSPRPKSTTVMVWIYGGGFYSGSSTLDVYNGKYLAYTEEVVLVSLSYRVGAFGFLALHGSQEAPGNVGLLDQRMALQWVHDNIQFFGGDPKTVTIFGESAGGASVGMHILSPGSRDLFRRAILQSGSPNCPWASVSVAEGRRRAVELGRNLNCNLNSDEELIHCLREKKPQELIDVEWNVLPFDSIFRFSFVPVIDGEFFPTSLESMLNSGNFKKTQILLGVNKDEGSFFLLYGAPGFSKDSESKISREDFMSGVKLSVPHANDLGLDAVTLQYTDWMDDNNGIKNRDGLDDIVGDHNVICPLMHFVNKYTKFGNGTYLYFFNHRASNLVWPEWMGVIHGYEIEFVFGLPLVKELNYTAEEEALSRRIMHYWATFAKTGNPNEPHSQESKWPLFTTKEQKFIDLNTEPMKVHQRLRVQMCVFWNQFLPKLLNATETIDEAERQWKTEFHRWSSYMMHWKNQFDHYSRHESCAEL
stoichiometry N: 4
